Test system: AHR
Test: Coimmunoprecipitation of 35S-labeled AHR with T7-tagged ARA9 or FKBP52
Format: binding
Conditions: T7-agarose coimmunoprecipitation, reticulocyte lysate AHR
Experimental: Bacterial Expression: The ARA9 and FKBP52 proteins tagged with the T7 peptide (PL799, PL1004, PL1005 and PL947) were expressed in BL21(DE3) bacteria (Novagen). The T7 tag is an 11 amino acid peptide, MASMTGGQQMG, that facilitates detection and purification of the recombinant protein using anti-T7 antibodies (Novagen). Saturated cultures were used to inoculate LB growth media supplemented with 0.4 mM IPTG and 100 μg/ml ampicillin. The bacteria were allowed to grow an additional 4 hours at 37° C and pelleted by centrifugation at 5000×g for 5 min. The pellet was resuspended in bind/wash buffer (4.29 mM Na2HPO4, 1.47 mM KH2PO4, 2.7 mM KCl, 0.137 M NaCl, 0.1% (v/v) Tween and 0.002% (w/v) NaN3). The resulting mixture was disrupted using four ×15 second sonic pulses on ice. Insoluble debris was removed by centrifugation at 12,000×g for 20 minutes at 4° C. The supernatant was passed through a […] filter and protein concentrations determined by the BCA protein assay (Pierce, Rockford Ill.). […] The complexes were then precipitated and analyzed by SDS-PAGE and autoradiography.
Specificity of ARA9 for AHR: The structural similarity between ARA9 and FKBP52 led us to compare the relative capacity of these two factors to bind AHR. […] The AHR-ARA9 or AHR-FKBP52 associations were determined by coimmunoprecipitation with T7-agarose.

B1: ARA9: 37 kDa Ah receptor-associated protein, immunophilin structurally similar to FKBP52 (protein, UniProt O08915 1-330, looked up)
AH receptor-interacting …: MADLIARLREDGIQKRVIQEGRGELPDFQDGTKATFHFRTLHSDNEGSVIDDSRTRGKPMELIVGKKFKLPVWETIVCTMREGEIAQFLCDIKHVVLYPLVAKSLRNIAEGKDPLEGQRHCCGIAQMHEHSSLGHADLDALQQNPQPLIFHIEMLKVESPGTYQQDPWAMTDEEKAKAVPVIHQEGNRLYREGQVKEAAAKYYDAIACLKNLQMKEQPGSPDWIQLDLQITPLLLNYCQCKLVAQEYYEVLDHCSSILNKYDDNVKAYFKRGKAHAAVWNAQEAQADFAKVLELDPALAPVVSRELRALETRIRQKDEEDKARFRGIFSH
efficiency at precipitating AHR relative to FKBP52: approximately four times more efficient

Reference: patent US6432692B1, “Sensitive bioassay for detecting agonists of the aryl hydrocarbon receptor” (Wisconsin Alumni Research Foundation, priority 1999, dated 2002)
